# Assay results published in PMC6925385, “Dual role of a GTPase conformational switch for membrane fusion by mitofusin ubiquitylation” (Life Science Alliance, 2019).
# Molecular target: the molecule itself
# Test: sucrose gradient centrifugation; crude mitochondrial extracts solubilized with 1% digitonin at low protein density (pellet in 500 μl, 10× less dense); 5-25% sucrose gradient, 14-16 h at 4°C; fractions blotted for HA
protein,measurement,value
"HA-tagged Fzo1 (yeast mitofusin), wild type (natural protein, yeast (strains isogenic to S288c), UniProt P38297 1-855, looked up, unmodified and ubiquitylated forms both present; K48-linked ubiquitin chains conjugated to lysine 398, Fzo1, the yeast mitofusin (large dynamin-related GTPase of the mitochondrial outer membrane); The immunoprecipitate holds a mix of unmodified and ubiquitylated Fzo1; also called HA-Fzo1; wt Fzo1; source: yeast (isogenic to S288c), genomically HA-tagged or expressed from the centromeric plasmid pRS316 in Δfzo1 cells; in solubilized crude mitochondrial extracts) MSEGKQQFKDSNKPHKDSTDQDDDAATIVPQTLTYSRNEGHFLGSNFHGVTDDRTTLFDGEEGRREDDLLPSLRSSNSKAHLISSQLSQWNYNNNRVLLKRSILKTQAFMDQLQEENNIRPIFIAANDEREKLHVLQLNIKLDGQYNTKEKNGFNIEKKALSKLFHSQIVSVTNHLNALKKRVDDVSSKVFITGDVNTGKSALCNSLLKQRLLPEDQLPCTNVFSEILEARENDGIEEVHAIPLNIAPTLKEAIDMYSIQNPKTYEIHTLKELPDLVPQNGKYALLKIYIKDDKRPASTSLLRNGTVDISLIDSPGLNMDSLQTAEVMSRQEEIDLVIFVVNAENQLTLSAKEFISLASREKKLMFFVVKKFDKIRDKQRCKELILKQIRDLSPETYKRAADFVHFVSKNGDELPHYHNENDNEDHGDRKPDDDPYSSSDPDPDFDSLEDSLRNFVLKKRSLSKLLPAKTYLSKLLSDIIMISKSNMKMYSEEEIKINEQLETLRPEILSARAKCNDLTTSVDQMAEQTITMTYNNTKEALLNALDVPLHEYPKYQGLGQIYDFIFSTEAFIANQIDESIGSSELFAKQKTDLLVKKIYEIGKNELGDDFMCERVFRSELMFRKRKHLIGKRLKVSLSITDLFAPTWKGFLSYLSWQKPVTAPLPDIEGQTNEGQIGLMKYLGLKNYPLTQYWSRPSLLFTSKIPTLTLYFLGSTKVVGNIILNGIKLSSWSSLKKLSVPVIVVGSLLGLTYLIHDLPRALPMNLSIKYKRKLQELDYIHLNAQRTSNEVRDVLRVPTREILRSCEIIMDKKQITKKELENKKESNLLSIKFFQSLYEGTVAQKLMVEEINLDID",stoichiometry N,2
